To fix the notation:
B1: Nse5-LexA (wild type) [S. cerevisiae] / Nse6-AD [S. cerevisiae] (parent complex)
chain 1: MDGALINSVLYVSPRNGAHYFVELTEKHLLAFEMLNSMCLLENYDHVLLFLECQFGKSHNLAVIPFDIILVLFTLSTLSEYYKEPILRANDPYNTSRETLSRRALKLLQKYLAILKEFDSEQYNLYDLELLRCQFFLAIDTLTPKKQKWGFDRFRRTKSESGVTYRQNASVDPELDQAKTFKNPYRSYISCLEQRNTILGNRLLNLKLNEPGEFINMILWTLSNSLQESTPLFLSSHEIWMPLLEILIDLFSCRQDYFIQHEVAQNVSKSLFVQRLSESPLAVFFESLNTRNFANRFSEYVFLNCDYKLPSDNYATPVHPVYNGENTIVDTYIPTIKCSPLYKSQKSLALRRKLIGSCFKLLLRVPDGHRLITPRIVADDVIQGISRTLASFNDILQFKKFFMTENLSQESYFIPLLAEGTLSEILKDTQECVVILTLVENLSDGVSFCNEVIGLVKSKCFAFTEQCSQASYEEAVLNIEKCDVCLLVLLRYLLHLIGTEAILDAKEQLEMLHAIEKNDSGRRQWAKALNLGNDPPLLYPIVSQMFGVHDKSVIIE
chain 2: MGSVNSSPNEEFETVPDSQISGFDSPLIPTSVGSYFRDDDDDEKVHPNFISDPENDSLNSDEEFSSLENSDLNLSGAKAESGDDFDPILKRTIISKRKAPSNNEDEEIVKTPRKLVNYVPLKIFNLGDSFDDTITTTVAKLQDLKKEILDSPRSNKSIVITSNTVAKSELQKSIKFSGSIPEIYLDVVTKETISDKYKDWHFISKNCHYEQLMDLEMKDTAYSFLFGSSRSQGKVPEFVHLKCPSITNLLVLFGVNQEKCNSLKINYEKKENSRYDNLCTIFPVNKMLKFLMYFYSDDDNDDVREFFLKAFICLILDRKVFNAMESDHRLCFKVLELFNEAHFINSYFEIVDKNDFFLHYRLLQIFPHLQSALLRRRFSEKQGRTETIQQNIIKEFNEFFDCKNYKNLLYFILTMYGSKFIPFGPKCQVTEYFKDCILDISNETTNDVEISILKGILNLFSKIR

In one assay the parent is B1. Kind of assay: yeast two-hybrid (β-galactosidase); gal (induced) bar; parent: 2.45e+03.
Take chain 1 MDGALINSVLYVSPRNGAHYFVELTEKHLLAFEMLNSMCLLENYDHVLLFLECQFGKSHNLAVIPFDIILVLFTLSTLSEYYKEPILRANDPYNTSRETLSRRALKLLQKHLAILKEFDSEQYNLYDLELLRCQFFLAIDTLTPKKQKWGFDRFRRTKSESGVTYRQNASVDPELDQAKTFKNPYRSYISCLEQRNTILGNRLLNLKLNEPGEFINMILWTLSNSLQESTPLFLSSHEIWMPLLEILIDLFSCRQDYFIQHEVAQNVSKSLFVQRLSESPLAVFFESLNTRNFANRFSEYVFLNCDYKLPSDNYATPVHPVYNGENTIVDTYIPTIKCSPLYKSQKSLALRRKLIGSCFKLLLRVPDGHRLITPRIVADDVIQGISRTLASFNDILQFKKFFMTENLSQESYFIPLLAEGTLSEILKDTQECVVILTLVENLSDGVSFCNEVIGLVKSKCFAFTEQCSQASYEEAVLNIEKCDVCLLVLLRYLLHLIGTEAILDAKEQLEMLHAIEKNDSGRRQWAKALNLGNDPPLLYPIVSQMFGVHDKSVIIE [chain 1 Y111H]: the response is 2170 β-galactosidase activity units.
For chain 1 MDGALINSVLYVSPRNGAHYFVELTEKHLLAFEMLNSMCLLENYDHVLLFLECQFGKSHNLAVIPFDIILVLFTLSTLSEYYKEPILRANDPYNTSRETLSRRALKLLQKYLAILKEFDSEQHNLYDLELLRCQFFLAIDTLTPKKQKWGFDRFRRTKSESGVTYRQNASVDPELDQAKTFKNPYRSYISCLEQRNTILGNRLLNLKLNEPGEFINMILWTLSNSLQESTPLFLSSHEIWMPLLEILIDLFSCRQDYFIQHEVAQNVSKSLFVQRLSESPLAVFFESLNTRNFANRFSEYVFLNCDYKLPSDNYATPVHPVYNGENTIVDTYIPTIKCSPLYKSQKSLALRRKLIGSCFKLLLRVPDGHRLITPRIVADDVIQGISRTLASFNDILQFKKFFMTENLSQESYFIPLLAEGTLSEILKDTQECVVILTLVENLSDGVSFCNEVIGLVKSKCFAFTEQCSQASYEEAVLNIEKCDVCLLVLLRYLLHLIGTEAILDAKEQLEMLHAIEKNDSGRRQWAKALNLGNDPPLLYPIVSQMFGVHDKSVIIE [chain 1 Y123H], the response is 2190 β-galactosidase activity units.
Still for that read-out and setting: for chain 1 MDGALINSVLYVSPRNGAHYFVELTEKHLLAFEMLNSMCLLENYDHVLLFLECQFGKSHNLAVIPFDIILVLFTLSTLSEYYKEPILRANDPYNTSRETLSRRALKLLQKYLAILKEFDSEQYNLYDLELLRCQFFLAIDTLTPKKQKWGFDRFRRTKSESGVTYRQNASVDPELDQAKTFKDPYRSYISCLEQRNTILGNRLLNLKLNEPGEFINMILWTLSNSLQESTPLFLSSHEIWMPLLEILIDLFSCRQDYFIQHEVAQNVSKSLFVQRLSESPLAVFFESLNTRNFANRFSEYVFLNCDYKLPSDNYATPVHPVYNGENTIVDTYIPTIKCSPLYKSQKSLALRRKLIGSCFKLLLRVPDGHRLITPRIVADDVIQGISRTLASFNDILQFKKFFMTENLSQESYFIPLLAEGTLSEILKDTQECVVILTLVENLSDGVSFCNEVIGLVKSKCFAFTEQCSQASYEEAVLNIEKCDVCLLVLLRYLLHLIGTEAILDAKEQLEMLHAIEKNDSGRRQWAKALNLGNDPPLLYPIVSQMFGVHDKSVIIE [chain 1 N183D] the value was 2140 β-galactosidase activity units.
Regarding chain 1 MDGALINSVLYVSPRNGAHYFVELTEKHLLAFEMLNSMCLLENYDHVLLFLECQFGKSHNLAVIPFDIILVLFTLSTLSEYYKEPILRANDPYNTSRETLSRRALKLLQKYLAILKEFDSEQYNLYDLELLRCQFFLAIDTLTPKKQKWGFDRFRRTKSESGVTYRQNASVDPELDQAKTFKNPYRSYISCLEQRNTILGNRLLNLKLNEPGEFINMILWTLSNSLQESTPLFLSSHEIWMPLLEILIDLFSCRQDYFIQHEVAQNVSKSLFVQRLSESPLAVFFESLNTRNFANRFSEYVFLNCDYKLPSDNYATPVYPVYNGENTIVDTYIPTIKCSPLYKSQKSLALRRKLIGSCFKLLLRVPDGHRLITPRIVADDVIQGISRTLASFNDILQFKKFFMTENLSQESYFIPLLAEGTLSEILKDTQECVVILTLVENLSDGVSFCNEVIGLVKSKCFAFTEQCSQASYEEAVLNIEKCDVCLLVLLRYLLHLIGTEAILDAKEQLEMLHAIEKNDSGRRQWAKALNLGNDPPLLYPIVSQMFGVHDKSVIIE [chain 1 H319Y], the response is 2070 β-galactosidase activity units.

In the next assay the parent is B1. As to the kind of experiment: yeast two-hybrid (β-galactosidase); gal (induced) bar; vector bait control 2.8; parent: 2.45e+03.
Turning to chain 1 MDGALINSVLYVSPRNGAHYFVELTEKHLLAFEMLNSMCLLENYDHVLLFLECQFGKSHNLAVIPFDIILVLFTLSTLSEYYKEPILRANDPYNTSRETLSRRALKLLQKYLAILKEFDSEQYNLYDLELLRCQFFLAIDTLTPKKQKWGFDRFRRTKSESGVTYRQNASVDPELDQAKTFKNPYRSYISCLEQRNTILGNRLLNLKLNEPGEFINMILWTLSNSLQESTPLFLSSHEIWMPLLEIAIDLFSCRQDYFIQHEVAQNVSKSLFVQRLSESPLAVFFESLNTRNFANRFSEYVFLNCDYKLPSDNYATPVHPVYNGENTIVDTYIPTIKCSPLYKSQKSLALRRKLIGSCFKLLLRVPDGHRLITPRIVADDVIQGISRTLASFNDILQFKKFFMTENLSQESYFIPLLAEGTLSEILKDTQECVVILTLVENLSDGVSFCNEVIGLVKSKCFAFTEQCSQASYEEAVLNIEKCDVCLLVLLRYLLHLIGTEAILDAKEQLEMLHAIEKNDSGRRQWAKALNLGNDPPLLYPIVSQMFGVHDKSVIIE [chain 1 L247A], the response was 2570 β-galactosidase activity units.
On the same count and under the same terms, for chain 1 MDGALINSVLYVSPRNGAHYFVELTEKHLLAFEMLNSMCLLENYDHVLLFLECQFGKSHNLAVIPFDIIAVLFTLSTLSEYYKEPILRANDPYNTSRETLSRRALKLLQKYLAILKEFDSEQYNLYDLELLRCQFFLAIDTLTPKKQKWGFDRFRRTKSESGVTYRQNASVDPELDQAKTFKNPYRSYISCLEQRNTILGNRLLNLKLNEPGEFINMILWTLSNSLQESTPLFLSSHEIWMPLLEILIDLFSCRQDYFIQHEVAQNVSKSLFVQRLSESPLAVFFESLNTRNFANRFSEYVFLNCDYKLPSDNYATPVHPVYNGENTIVDTYIPTIKCSPLYKSQKSLALRRKLIGSCFKLLLRVPDGHRLITPRIVADDVIQGISRTLASFNDILQFKKFFMTENLSQESYFIPLLAEGTLSEILKDTQECVVILTLVENLSDGVSFCNEVIGLVKSKCFAFTEQCSQASYEEAVLNIEKCDVCLLVLLRYLLHLIGTEAILDAKEQLEMLHAIEKNDSGRRQWAKALNLGNDPPLLYPIVSQMFGVHDKSVIIE [chain 1 L70A] the value was 2130 β-galactosidase activity units.

For the origin of these results see PMC4920195, “Non-Smc element 5 (Nse5) of the Smc5/6 complex interacts with SUMO pathway components” (Biology Open, 2016).
